In the test the target is MBP-TSR4+5, recombinant thrombospondin repeats 4 and 5 of human properdin expressed in tandem, fused to maltose-binding protein (human). The experiment in a line: SEC. Background: In gel filtration, larger molecules generally elute earlier.

A word on the stoichiometry N: it is the number of molecules, sites or subunits per partner or assembly. For the substance “MBP-TSR4+5, recombinant thrombospondin repeats 4 and 5 of human properdin expressed in tandem, fused to maltose-binding protein (domain or fragment)”, the percent migrating as dimer stood at 40% and the stoichiometry N was determined as 2.
